In paper PMC11393077:

Molecular target: CTD peptide containing two heptad repeats with one Ser5 phosphorylation site
Test: fluorescence polarisation

With “Human prolyl isomerase 1 (PIN1) (from UniProt Q13526 1-163) (enzyme)” the Kd was 21 µM.
